Measurements as given in patent US20190048074A1.

What was measured:
[1] = target: full-length human APLNR (human) (UniProt P35414); test: FACS, 10 µg/mL antibody, HEK293/CRE-luc/hAPLNR cells
[2] = target: full length cynomolgus APLNR (cynomolgus monkey (Macaca fascicularis)); test: FACS, 10 µg/mL antibody, HEK293/CRE-luc/MfAPLNR cells
[3] = target: full-length human APLNR (human) (UniProt P35414); test: FACS, secondary alone, HEK293/CRE-luc/hAPLNR cells
[4] = target: full length cynomolgus APLNR (cynomolgus monkey (Macaca fascicularis)); test: FACS, 4 µg/mL secondary alone, HEK293/CRE-luc/MfAPLNR cells
[5] = target: full-length human APLNR (human) (UniProt P35414); test: FACS, 4 µg/mL secondary alone, HEK293/CRE-luc/hAPLNR cells
[6] = target: full length cynomolgus APLNR (cynomolgus monkey (Macaca fascicularis)); test: FACS, secondary alone, HEK293/CRE-luc/MfAPLNR cells

Chain of full length cynomolgus APLNR (cynomolgus monkey (Macaca fascicularis)) (O97666 whole entry): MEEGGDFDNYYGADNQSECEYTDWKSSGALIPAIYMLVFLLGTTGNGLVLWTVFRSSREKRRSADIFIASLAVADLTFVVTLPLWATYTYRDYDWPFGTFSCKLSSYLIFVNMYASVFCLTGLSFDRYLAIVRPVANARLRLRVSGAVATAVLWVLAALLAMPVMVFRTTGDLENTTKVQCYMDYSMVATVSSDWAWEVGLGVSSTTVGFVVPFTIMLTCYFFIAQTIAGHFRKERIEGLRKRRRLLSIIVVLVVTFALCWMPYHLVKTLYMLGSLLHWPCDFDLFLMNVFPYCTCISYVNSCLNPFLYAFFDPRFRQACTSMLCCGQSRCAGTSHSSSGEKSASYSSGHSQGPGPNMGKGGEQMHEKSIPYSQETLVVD
Chain of full-length human APLNR (human) (P35414 whole entry): as the sequence (O97666 whole entry) above, with S101F, F167L, D194E, V290I counted along it

Binding Ratio of Geom. Mean to Unstained Cells [1] [fold]	Binding Ratio of Geom. Mean to Unstained Cells [2] [fold]	Binding Ratio of Geom. Mean to Unstained Cells [3] [fold]	Binding Ratio of Geom. Mean to Unstained Cells [4] [fold]	Binding Ratio of Geom. Mean to Unstained Cells [5] [fold]	Binding Ratio of Geom. Mean to Unstained Cells [6] [fold]	Substance
2	2					Isotype Control (Tables 4 and 5) (antibody)
		2	2	2	2	anti-human IgG antibody conjugated with Alexa 488
			3	4		anti-mouse IgG antibody conjugated with Alexa 647
7	6					mouse IgG (mIgG) control antibody
